The source of these data is article PMC12313985 (2025).

This test has as its target T1, 14-3-3 protein zeta (14-3-3ζ) (UniProt P63104 1-245).
T1 chain: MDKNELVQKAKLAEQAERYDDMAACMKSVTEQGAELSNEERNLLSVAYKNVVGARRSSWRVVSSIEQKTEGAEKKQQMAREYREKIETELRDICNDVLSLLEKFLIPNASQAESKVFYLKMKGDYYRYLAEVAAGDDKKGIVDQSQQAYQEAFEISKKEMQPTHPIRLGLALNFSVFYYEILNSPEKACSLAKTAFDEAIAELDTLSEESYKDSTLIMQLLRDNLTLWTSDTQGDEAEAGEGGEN
Description: FP.

Square brackets hold non-standard residues; d marks the D form. Ends that are not written are not given here. pS = N[C@@H](COP(=O)(O)O)C(=O)O

Usually Kd stands for the free concentration of one partner at which half of the binding sites on the other are occupied at equilibrium, for simple one-to-one binding. Higher therefore signals weaker binding. With SRTP[pS]LPTPPTREGGGSGGGSGGGVTSKCG[pS]LGNIHHK (also: fluorescein (FITC) label, position not given here) [Fluorescein (FITC)-labelled bi-phospho Tau peptide pS2 (Tau^210–222-GGGSGGGSGGG-Tau^318–331)], the affinity, expressed as Kd, was 0.945 µM. Next, VTSKCG[pS]LGNIHHK (also: fluorescein (FITC) label, position not given here) [Fluorescein-labelled mono-phospho-Tau pS324 peptide]: above 100 µM; SRTP[pS]LPTPPTRE (also: fluorescein (FITC) label, position not given here) [Fluorescein-labelled mono-phospho-Tau pS214 peptide]: above 100 µM.
